# System: CD14+ monocytes
# Test: Flow cytometry count of TH+ monocytes after in vitro treatment
# Assay type: cell-based, human
# Conditions: healthy donor monocytes, 2 million per well, 4 hours; TPA 100 ng/ml, TNFα 17 ng/ml, IL6 17 ng/ml, XPro1595 50 ng/ml; n=3 per group
# Experimental: Monocytes were isolated from total PBMCs prepared as described above^51 using negative selection (Biolegend, 480048) per manufacturer's instructions. Total PBMCs were Fc-blocked to reduce nonspecific binding, followed by incubations with biotin-conjugated antibody cocktail containing antibodies against all subsets except CD14 (negative selection), followed by incubation with magnetic-Avidin beads, allowing all subsets other than CD14+ monocytes to be bound to the magnet. Monocyte purity/enrichment was routinely verified to confirm that the final cell population was greater than 95% pure CD14+ cells (FIG. S2). CD14+ monocytes were collected from the supernatant fraction, washed, counted and density adjusted such that 2 million CD14+ monocytes were seeded per well (FIG. 5A) and treated for 4 hours with vehicle, TPA (100 ng/ml, Biolegend, 755802)^7, TNFα (17 ng/mL, Biolegend, 570102)^61, XPro1595 (50 ng/ml), or IL6 (17 ng/mL) in an ultra-low-adherence 6-well plate (Corning, 3471) to prevent adherence. Suspended cells from each treatment group were aspirated and placed in a 15 ml conical tube, with any remaining adherent cells detached by incubation with 700 uL Accumax solution for 3 minutes (Innovative Cell Technologies, AM105) and added to suspended cells. […]
molecule,measurement,value
"TPA: tissue plasminogen activator, positive control for increased monocyte TH expression (Biolegend, 755802) (protein, UniProt P00750 36-562, looked up) Tissue-type plasminogen …: SYQVICRDEKTQMIYQQHQSWLRPVLRSNRVEYCWCNSGRAQCHSVPVKSCSEPRCFNGGTCQQALYFSDFVCQCPEGFAGKCCEIDTRATCYEDQGISYRGTWSTAESGAECTNWNSSALAQKPYSGRRPDAIRLGLGNHNYCRNPDRDSKPWCYVFKAGKYSSEFCSTPACSEGNSDCYFGNGSAYRGTHSLTESGASCLPWNSMILIGKVYTAQNPSAQALGLGKHNYCRNPDGDAKPWCHVLKNRRLTWEYCDVPSCSTCGLRQYSQPQFRIKGGLFADIASHPWQAAIFAKHRRSPGERFLCGGILISSCWILSAAHCFQERFPPHHLTVILGRTYRVVPGEEEQKFEVEKYIVHKEFDDDTYDNDIALLQLKSDSSRCAQESSVVRTVCLPPADLQLPDWTECELSGYGKHEALSPFYSERLKEAHVRLYPSSRCTSQHLLNRTVTDNMLCAGDTRSGGPQANLHDACQGDSGGPLVCLNDGRMTLVGIISWGLGCGQKDVPGVYTKVTNYLDWIRDNMRP","number of TH+ monocytes, fold change relative to vehicle",significant increases in TH-expressing monocytes relative to vehicle

# — patent US20240345090A1, “EARLY DETECTION OF INNATE IMMUNE DYSFUNCTION AND TREATMENT OF CONDITIONS ASSOCIATED THEREWITH” (UNIVERSITY OF FLORIDA RESEARCH FOUNDATION, INCORPORATED, priority 2021, published 2024)
